Test results reported in patent publication US20050209137A1 (published 2005).

How the values were obtained:
recombinant human leptin [1] = molecular target: T1, recombinant human leptin (human, UniProt P41159 22-167); assay: cell-based or functional assay
[2] = molecular target: T2, ovine leptin (fraction SP) (ovine, UniProt Q28603 1-146); assay: cell-based or functional assay
chicken leptin = molecular target: T3, chicken leptin (chicken, UniProt O42164 19-163, limits assumed); assay: cell-based or functional assay
T3 sequence (looked up): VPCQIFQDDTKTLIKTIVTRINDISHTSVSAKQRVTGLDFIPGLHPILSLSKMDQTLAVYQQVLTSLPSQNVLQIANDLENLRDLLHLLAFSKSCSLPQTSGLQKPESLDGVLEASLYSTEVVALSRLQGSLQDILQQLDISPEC

recombinant human leptin [3] = molecular target: T1, recombinant human leptin; assay: cell-based or functional assay; remark: listed apart in the source
[4] = molecular target: T2, ovine leptin (fraction SP); assay: cell-based or functional assay; remark: listed apart in the source
recombinant human leptin [5] = molecular target: T1, recombinant human leptin; assay: SPR, hLEP immobilized on CM5, LBD in flow
Procedure: Kinetic Measurements of LBD-hLEP Interactions—All experiments were performed at 25° C. using surface plasmon resonance (SPR) methodology. The kinetics and equilibrium constants for the interaction between hLEP and LBD were determined using the Biacore 3000 system (Uppsala, Sweden). hLEP was immobilized in a flow cell of a research-grade CM5 sensor chip using amine-coupling chemistry (Lofas, S. et al (1990) J. Chem. Soc. Chem. Commun. 21, 1526-1528). The immobilization steps were carried out at a flow rate of 10 μl/min in HBS-EP buffer. The surface was activated for 7 min with a mixture of N-hydroxysuccinimide (0.05 M) and N-ethyl-N′(3-dimethylaminopropyl)-carbodiimide hydrochloride (0.2 M). hLEP was injected at a concentration of 50 μg/ml in 10 mM acetate, pH 3.5, until the desired level (1000 resonance units) was achieved. Ethanolamine (1 M, pH 8.5) was injected for 7 min to block the remaining activated groups. A control surface was prepared by activating the carboxyl groups and then blocking the activated groups by ethanolamine as described. […] Regeneration of the surface after each interaction was performed by using a 10-μl pulse of 10 mM glycine buffer, pH 2. […]
SPR Determination of the Interaction between hLEP and LBD—The interactions of hLEP and LBD were analyzed by comparison with a theoretical model using Chi-square analysis.

T1 sequence (P41159 22-167): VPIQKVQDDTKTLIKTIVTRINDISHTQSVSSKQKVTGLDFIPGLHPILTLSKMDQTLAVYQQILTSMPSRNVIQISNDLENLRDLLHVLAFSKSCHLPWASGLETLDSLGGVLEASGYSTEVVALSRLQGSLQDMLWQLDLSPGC

B1: recombinant human leptin receptor leptin-binding domain (LBD), amino acids 428-635 of the human leptin receptor (receptor)
chain: MAIDVNINISCETDGYLTKMTCRWSTSTIQSLAESTLQLRYHRSSLYCSDIPSIHPISEPKDCYLQSDGFYECIFQPIFLLSGYTMWIRINHSLGSLDSPPTCVLPDSVVKPLPPSSVKAEITINIGLLKISWEKPVFPENNLQFQIRYGLSGKEVQWKMYEVYDAKSKSVSLPVPDLCAVYAVQVRCKRLDGLGYWSNWSNPAYTVVMD
notes: also called hLBD; human LBD
molar excess of LBD required to achieve 50% inhibition of leptin-stimulated proliferation of BAF/3 cells with the long form of human leptin receptor (recombinant human leptin [1]): 200 molar excess
molar excess of LBD required to achieve 50% inhibition of leptin-stimulated proliferation of BAF/3 cells with the long form of human leptin receptor [2]: 200 molar excess
molar excess of LBD required to achieve 50% inhibition of leptin-stimulated proliferation of BAF/3 cells with the long form of human leptin receptor (chicken leptin): 600 molar excess
IC50 (read off the curve) (recombinant human leptin [3]): ~20 nM
IC50 (read off the curve) [4]: ~20 nM
complex half-life (recombinant human leptin [5]): 6.24 min
